Assay [1] has as its target T1, Recombinant human EGFR (human, UniProt P00533 25-645, limits assumed).
T1 construct: Immobilized by amine coupling on a carboxymethyl dextran SPR chip; also called epidermal growth factor receptor; surface-immobilized EGFR
The assay is described as follows: SPR, EGFR immobilized, peptide as analyte, 1:1 model.
Procedure: (§1) A carboxymethyl dextran gold sensor chip was activated by N-hydroxysuccinimide (NHS) and N-ethyl-N″-[3-(diethylamino)propyl] carbodiimide (EDC) at 25° C. using phosphate buffered saline pH 7.4 with 0.05% tween 20 as running buffer. […] Unreactive sites were blocked by flowing over the chip 1 M ethanolamine pH 8.5 at 10 μL/min for 8 minutes. […] The resulting sensograms were globally fitted using Scrubber2 software (BioLogic Software, Campbell, Australia) in a 1:1 binding model to determine the association rate (kₒₙ), dissociation rate (kd or koff), and dissociation constant KD.

For assay [2], the target named is T2, Bovine serum albumin (bovine, UniProt P02769 25-607).
T2 construct: Immobilized control protein in SPR; also called BSA
T2 sequence (P02769 25-607 limits assumed): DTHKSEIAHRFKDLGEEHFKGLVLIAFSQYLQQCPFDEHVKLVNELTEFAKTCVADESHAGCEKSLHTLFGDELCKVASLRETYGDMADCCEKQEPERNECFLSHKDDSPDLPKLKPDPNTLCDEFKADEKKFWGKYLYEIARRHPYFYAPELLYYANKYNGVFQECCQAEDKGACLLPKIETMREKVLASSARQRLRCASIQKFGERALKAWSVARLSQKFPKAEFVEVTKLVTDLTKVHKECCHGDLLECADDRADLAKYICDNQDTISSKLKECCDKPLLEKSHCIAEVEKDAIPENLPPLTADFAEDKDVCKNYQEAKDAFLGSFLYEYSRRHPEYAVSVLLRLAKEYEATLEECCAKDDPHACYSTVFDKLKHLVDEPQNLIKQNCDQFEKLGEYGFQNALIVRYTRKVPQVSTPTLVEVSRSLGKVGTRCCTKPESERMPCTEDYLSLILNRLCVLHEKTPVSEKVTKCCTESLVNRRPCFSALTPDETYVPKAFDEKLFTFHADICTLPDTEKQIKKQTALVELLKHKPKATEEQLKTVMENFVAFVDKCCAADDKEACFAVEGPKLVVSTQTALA
The assay is described as follows: SPR, BSA immobilized, peptide as analyte. On the technique in general: SPR reads the build-up and loss of mass on a sensor chip optically.

The target of assay [3] is T3, HER2 recombinant human protein (human, UniProt P04626 23-652, limits assumed).
T3 construct: Covalently attached to a carboxymethylated dextran SPR chip by EDC/NHS; also called HER2 protein; human epidermal growth factor receptor 2
The assay is described as follows: SPR, HER2 immobilized, peptide as analyte, 1:1 model.
Procedure: Then, the chip was blocked by passing EA for 8 minutes at a rate of 10 μL/min. […] Triplicate determinations were done at each concentration. The bound surface was regenerated by sequential injections of 10 mM glycine in PBST (pH 2.5).
The sensorgrams from SPR were globally treated using Scrubber 2® software where all traces were zeroed, cropped, aligned, and referenced. Kinetic constants ka and kd were determined by global fitting analyses of the titration curves using the 1:1 Lagmurian interaction model taking into account the mass transport. The equilibrium dissociation constant (KD) was calculated from the kd/ka ratio.
Both kinetic constants ka and kd were determined by global fitting analyses of the titration curves using the 1:1 Lagmurian interaction model in software Scrubber.

For assay [4], the target named is T4, EGFR on A431 and MDA-MB-468 cells (UniProt P00533 25-1210, limits assumed). As to the kind of experiment: cell-based or functional assay.
Assay [5] concerns the target HER2 on MDA-MB-361 and ZR-75-1 cells (human) (UniProt P04626). As to the kind of experiment: flow cytometry, FITC-labelled peptide 10 µM, ZR-75-1 cells (blank cells 3.2±0.4). (In general: In flow cytometry, cells or beads pass a laser one at a time.)
Assay [6] shares this target. The assay is described as follows: flow cytometry, FITC-labelled peptide 10 µM, MDA-MB-361 cells (blank cells 4.5±0.2).
In assay [7] the target is T1, Recombinant human EGFR. The assay is described as follows: SPR, EGFR immobilized.
Procedure: as §1
Assay [8] deals with T1, Recombinant human EGFR. As to the kind of experiment: SPR, EGFR immobilized on the chip, scrambled peptide Pep25 injected; concentrations not given.
Assay [9] deals with T4, EGFR on A431 and MDA-MB-468 cells. The assay is described as follows: confocal microscopy of cells incubated with FITC-labelled scrambled peptide for 30 min at 37 C.
Procedure: For binding/internalization studies, 5×10⁵ cells were seeded in cover slips in 6 well culture plates overnight. […] Cells were fixed with 4% paraformaldehyde and cover slips were mounted on slides which contain a drop of SlowFade®. Cells were then imaged with an inverted Leica. DMIRE2 fluorescence microscope (Leica Biosystems Richmond Inc., Richmond, USA) using a Yokogawa CSUX1 confocal scanner unit. […] Cells were then centrifuged at 500 g for 5 min. Supernatant was removed and cell pellets were re-suspended in FACS solution. The cell suspension was then analyzed on a Beckman Coulter flow cytometer and data were analyzed using the Cell Questpro. A total of 10000 events were collected monitoring FITC.

The term Kd denotes the free concentration of one partner at which half of the binding sites on the other are occupied at equilibrium, for simple one-to-one binding. One may read the koff as a measure of how fast the partners let go of each other. As a reminder, the kon is a measure of how fast the partners come together.

Where no end group is shown, it is not given here.

For the molecule AEYDFYGPGNEGSW (also called No. 24) [Pep24], in assay [1], the Kd was found to be 7200 nM, the koff is 0.103 s⁻¹ and the kon was 14300 M⁻¹ s⁻¹. The binding result in [2] is on record as “no binding”.

B1: Pep6 (peptide)
peptide: WSGENGPGYFDYEA
notes: Designed cetuximab mimic peptide for EGFR, made by synthesis; also called No. 6
For B1, in assay [1], the Kd was 4800 nM, the koff was 0.00581 s⁻¹ and the kon was 1210 M⁻¹ s⁻¹. Besides, the binding result in assay [2] was “no binding”.

B2: HER2-PEP7 (peptide)
peptide: VGYDTGLRAPNSVGSTKQ
modifications: not fully specified
notes: Designed pertuzumab mimic peptide; Unlabelled in SPR; FITC-labelled in cell assays
For the molecule B2, the Kd in assay [3] amounted to 93 nM.

B3: Pep11-auristatin E PDC (peptide)
peptide: WSGENGPGFYDYEA
modifications: also: auristatin E (as 5-benzoylpentanoic ester) joined through a maleimidocaproyl hydrazone linker to a free thiol of the peptide, thiol position not given here
On to B3, for which, in assay [4], the “IC50 of cytotoxicity (sulforhodamine B assay, 72 h), A431 cells” value came to 0.0026 nM and the “IC50 of cytotoxicity (sulforhodamine B assay, 72 h), MDA-MB-468 cells” value came out at 0.0013 nM.

B4: HER2-PEP22 (peptide)
peptide: TSPQGYPNDAGFLGRESTN
modifications: not fully specified
notes: Unlabelled in SPR; FITC-labelled in cell assays; also called control peptide; FITC-HER2-PEP22
Consider B4, for which the MFI in assay [5] was 19.6 MFI. Further, the MFI in assay [6] was determined as 22.1 MFI. For the same molecule, in [3], the Kd came out at 138000 nM, the koff turned out to be 0.0181 s⁻¹ and the kon stood at 131 M⁻¹ s⁻¹.

B5: Pep11 (peptide)
peptide: WSGENGPGFYDYEA
modifications: not fully specified
notes: Designed cetuximab mimic peptide for EGFR; Unlabelled in SPR; also called EGFR-PEP11; FITC-Pep11
With B5, the “fold KD relative to cetuximab” value in assay [7] was roughly 50 fold. Besides, in assay [4], the “IC50 of cytotoxicity (sulforhodamine B assay, 72 h), A431 cells” value worked out at 388 nM and the “IC50 of cytotoxicity (sulforhodamine B assay, 72 h), MDA-MB-468 cells” value came to 420 nM. In addition, in assay [1], the Kd came out at 252 nM, the koff is 0.0252 s⁻¹ and the kon was determined as 100000 M⁻¹ s⁻¹. Moreover, the binding result in [2] was “no binding”.

On to WSGENGPGTFYDYEA (also called EGFR-PEP22; No. 22) [Pep22], for which, in assay [1], the dissociation constant (Kd) amounted to 595 nM, the koff was determined as 0.0259 s⁻¹ and the kon was determined as 43500 M⁻¹ s⁻¹. Also, in assay [2], the binding result is “no binding”.

B6: Pep25 (peptide)
peptide: SGEWAYDGYEPNFG
modifications: also: FITC label in cell assays, position not given here
notes: Scrambled negative control; Unlabelled in SPR; FITC-conjugated in the cell assays; also called scrambled peptide; scrambled antibody mimic
As for B6, the binding result in [8] and in assay [9] was “no binding” each time.

B7: HER2-PEP21 (peptide)
peptide: PGNDTGLSRAPENSGFTYQ
modifications: not fully specified
notes: as for B2
Regarding B7, in assay [3], the Kd worked out at 56 nM.
